In the nanobody polyreactivity screen of Harvey et al. (2022):

Assay: yeast display, Sf9 membrane polyspecificity reagent, FACS + sequencing; frameworks hold sequencing errors
Outline: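 Synthetic nanobody libraries on Saccharomyces cerevisiae BJ5465 were galactose-induced for 36–48 hours, stained 1 hour at 4 °C with 10% biotinylated, detergent-solubilized Sf9 membrane reagent and enriched on streptavidin microbeads. FACS then separated cells into low and high (top ~1%) gates by anti-HA (expression) and streptavidin (reagent binding) fluorescence. Genes were colony-PCR amplified, MiSeq 2 × 250 sequenced and CDR-length filtered. A clone's polyreactivity label is that of its gate of origin.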

Sequence | polyreactivity (PSR sort gate)
QVQLVESGGGLVQAGGSLRLSCAASGNIFESYGMGGYRQAPGKERELVAAISFSGDSTYYADSVKGRFTISRDNAKNSVYLQMNSLKPEDTAVYYCATDVGYVYGYYYWGQGTQVTVSS | low polyreactivity
QVQLVESGGGLVQAGGSLRLSCAASGSLFSWYTKGWYRQAPGKERELVAAISRSGGRTYYADSVKGRFTISRDNAKNTVYLQMNSLKPEDTAVYSCAARVYSYYGSRGQRYDYWGQGTQVTVSS | high polyreactivity
QVQLVESGGGLVQAGGSLRLSCAASGSIFCVYAMGWYRQAPGKERELVAAISQSGGRTYYADSVKGRFTISRDNAKNTVYLQMNSLKPEDTAVYYCAAVVFNVYRRYWGQGTQVTVSS | high polyreactivity
QVQLVVSGGGLVQAGGSLRLSCAASGRIFYTYAMGWYIQAPGKERELVATITDGGSTYYADSVKVRFTISRDNAMNNVYLQMNILKPEDTAVYYCAADAYQWYDWGQGTHVTVSS | low polyreactivity
QVQLVESGGGLVQAGGSLRLSCAASGRTFRQNVMGWYRQAPGKERELVAAITASGGNTYYADSVKGRFTISRDNAKNTVYLQMNSLKPEDTAVYYCNAVPYLAMDYWGQGTQVTVSS | high polyreactivity
QVQLVDSGGGLVQAGGSLRLSCAASGYTFGNNARAWYRQAPGKERELVARIRTNGGTTYYADSVKGRFTISRDNAKYTVYLQMNSLKPEDTAVYYCNAYRGYEYDYWGQGTQVTVSS | low polyreactivity
QVQLVESGGGLVQAGGSLRLSCAASGSIFGPYAMGWYRQAPGKERELVAAITKSGGSTYYADSVKGRFTISRDNAKNTVYLQMNSLKPEDTSVYYCAADYGHEYWGQGTQVTVSS | low polyreactivity
KDQLVESGGGLVQAGGSLRLSCAASGRTFSHYTMGWYIQAPGKERELVARITRRGGRTYYADSVKGRFTISRDDAKNTVFLQMISLKPEDSAVYFCANEPWGYTRYTTYDYWGQGTQVTVSS | high polyreactivity
QVQLVESGGGLVQAGGRLPLSCAASGFIFGDYTMGWYRQAPGKERELVASISRRGGSTTYADSVKGRFTISRDNAMNTVYLQMNSLKPEDTAVYYCAARSRPSGSYNRHGPVDYWGQGTQVTVSS | high polyreactivity
QVQLVESGGGLVQAGGSLRLTCAASGRTFAWYAMGWYRQAPGKERELVAAISSGGSTYYADSVKGRFTISRDNAKNTVYLQMDSLKPEDTAVYYCAAEWHYIYAYDYWGQGTQVTVSS | low polyreactivity
QVQLVESGGGLVQAGGSLRLSCAASGLNFRQYAMGWYRKAPGKERELVAAITVTGGTTYYADSVKGRFTISRDNAKNTVYLQMNSLKPEDTAVYYCATRANYVGWTQFGHGYDYWGQGTQVTVSS | low polyreactivity
QVQLVESGGGLVQAGGSLRLSCAASVFTCAVYVMGWYRQAPGKERELVANISFSVGSTYYADSVKGRFTISRDYAKNTVYLQMNSLKPEDTAVYYCNADPPPEYYPDKDNYWGQGTQVTVSS | low polyreactivity
QVQLVESWGGLVQAGGSLRLSCAASGFTFAYNTMGWYRQAPGTEREWVAAISSSGGSTYYADSVKGRFTISRDNAKNTVYLQMNSLKPEDTAVYDCAAPFWRSFWASDYCGQGTQVTVSS | high polyreactivity
QVQLVESGGGLVQAGGSLRLSCAASGSIFSWNARGCYRQAPGKERELVAGITWSGGGTSYADSVKGRFTISRDNAKNTVYLQMNSLKPEDTAVYYCAKEWIFDFNYWGQGTQVTVSS | low polyreactivity
HVQLVESGGGLVHAGGSLRLSCAASGAIFWVNAMGWYREAPGKERELVADISRSGANTYYADSVKGRFTISRDNAKNTVYLQMTSLNPEDTAVYYCAKGVFYPWWYVQPEHDYWGQGTQVTVSS | high polyreactivity
QVHLVESGGGLVQAGGSLRLTSAASGRIFGRNAMGWYRQAPGKEREFVAAISRSGASRYYADSVKGRFTISRDNAKNTVYLQMNRLKPEDTAVYYCARTTRQSSAYTYSDEYDYWGQGTQVTVSS | high polyreactivity
QVQLVESGGGLVQAGGSLRLSCAASGYTFWAYAMGWYRQAPGKERELVAAITYRGGSTYYADSVKGRFTISRDNAKNTVYLQMNSLKPEDTAVYYCAAEGYYTGYWDLYDYWGQGTQVTVSS | high polyreactivity
QVQLVESGGALVQAGGSLRLSCAASGSTFRKYSMGWYRQAPGKERELVAVITKSGGSTYYADSVKGRFTISRDNAKNTVYLQMNSLKPEDTAVYYCAARRGGARHDYWGQGTQVTVSS | high polyreactivity
QVQLVESVGGLVQAGGSLRLSCAASGFIFNWYAMGWYRQAPGKERELVAAITSGGSTNYADSVKGRFTISRDNAKNTVYLQMNSLKPEDTAVYYCAARDWRRYGYWGQGTQVTVSS | high polyreactivity
QVQLVESGGGLVQAGGSLRLSCAASGSIFGAYTMGGYRQAPGKERELVAAITWSGGCTYYADSVKGRFTISRDNAKNTVYLQMNSLKPEDTAVYYCAAVFLRARYKYNYWGQGTQVTVSS | high polyreactivity
QGQLVESGGGFVQAGGSLRLSCDASGNIFSANAMGWYRQAPWKEREFVAAISSTGGSTYYADSVKGRFTISRDNEMNTLYLQMNCLKPEDTAVYYCAAYIRRYFHYDYWRQGTQVTVSS | high polyreactivity
QVQLVESGGGLVQAGGSLRLSCAASGRIFRGYVMGWYIQAPGKERELVAAISINGGRTYYADSVKGRFTISRDNAKNTVYLQMNSLKPEDTAVYYCAAEPIYFRGLYYYWGLGTQVTVSS | high polyreactivity

Sequence | polyreactivity (PSR sort gate)
QVQHVESGGGLVQAGGSLRLSCPASGLTVGGYAMGWYRQAPGKERELVAAISLSGGRTYYADSVKGRFTISRDIPMITVYLLMNSLKPEVSAVYYCAASILVVYLREDYWGQGTQVTVSS | high polyreactivity
QVQLVESGGGLVQAGGSLRLSCAASGRTFDRYAMGWYRQAPGKERELVAAITWSGGRTYYADSVKGRFTISRDNAKNTVYLQINSLKPEDTAVYYCAAAPRSYFTSEYWGQGTQVTVSS | low polyreactivity
QVQLVESGGGLVQAGGRLRLSCAASGRIFKWYPMGLYRQAPGKERELVAAITSGGSTYYADSVKGRFTISRDNAKNTVYLQMNSLNPEDTAVYYCAAPVYLYGTVGRGDYWGQGTQVTVSS | high polyreactivity
QVQLVESGGGLVQAGGSLRISCAASGRIFTPNAMGWYRQAPGKERELVAAITWSGDNTYADSVKGRFTISRDNAKKTVYLHMNTLKPEDTAVYYCAAAYGYGHKKYGYWGQGTQVTVSS | low polyreactivity
QVQLVESGGGLVQAGGSLRLSCAPSGRTFCPYAMGWYRKAPGKERELVAAISSSGSTTYYADSVKGRFTISRDNAKNTVYLQMNSLKPEDNAVYYCAAVYLRGDGEYDYWGQVTQVTVSS | low polyreactivity
QVQREESGGGLVQAGGSLRLSCAASGSIFVGNAMGWYRQAPGKESELVAAITASGTSTYYADSVKGRFTISRDNAKNTVYLQMNSLKPEDTAVYYCNAVQLVYDQYRYDYWGQGTQVTVSS | high polyreactivity
QVQLVESGGGLVQAGGSLRLRCAASGIIFYRYAMGWYRQAPGKERELVAAINTSGGRTYYADSVKGRFTISRDNAKNTVYLQMNSLKPEDTAVYYCAAYYSPVGFQYDYWGQGTQVTVSS | high polyreactivity
QVQLVESGGGLVQAGGSLRLSCAASGSIFKINAMGCYTPAPGKERELVATITRSTGTTYYADSVKGRFTNSRDTAKNSVYLQMNSLKPEDTAVYYCATDGDSNKLDYWGQGTQVTVSS | low polyreactivity
QVQLVESGGGLVQAGGSLRLSCAASGRIFGSYAMGWYRQAPGKERELVATITFGGGSTYYAESEKGRFTISRDNAKNTVYLQMNSLKPEDTAVYYCAADSGYLGIYGDEYSWGQGTQVTVSS | low polyreactivity
QDQLVESGGGLVQAGGSLRLSCAASGRTFVSNGMGWYRQAPGKERELLADINDGDDTYYADSVKGRFTISRDNAKNTVYLQMNSLKPEDTAVYYCAADPYWFFPHYDSWGQGTQVTVSS | low polyreactivity
QVQLVESGGGIVQAGGCLRLSFAASGFSFAKNAMGSYRQAPGKERELVAAIRSGGSTKYADSVNGRFTISRDNAKNTVYLQMNSLKPEDTAVYYCNARSTWSRTRPAYDYWGQGTQVTVSS | high polyreactivity
QVQLLESGVGKVQAGGRLRLSCAASGSIFLIYAMGWYRQAPGKESELVAAISSGGSKYYADSVNGRFTISRDNAKNTVYLQMNSVKPEDTAVYYCATYSTCVAYHLYYWGQGTQVSVSS | low polyreactivity
QVQLVESGGGLVQAGGSLRLSCAASGFTLLVNAMGWYRQAPGKERELVAAITSGGRTNYADSVKGRFTISRDNAKNTVYLQMNSLKPEDTAVYYCARDWGRKPDDGQQAWYEYWGQGTQVTVSS | low polyreactivity
QVQLVESGGGLVQAGGSLRLSCAASGFTFQKYAMGWYRQAPGKERELVAAISSSGGRTYYADSVKGRFTISRDNAKNTVYLQMNSLKPEDTAVYYCNAVPGYVYDYQYWGQGTQVTVSS | high polyreactivity
QVQLVESGGGLVQAGGSLRLSCAASGSTFYDYAMGWYRQAPGKERELVASITTGGDSTYYADSVKGRFTISRDNAKNTVYLQMNSLKPEDTAVYYCNADWYYWISNYQGAPEMDYWGQGTQVTVSS | high polyreactivity
QVQLVESGGGLVQAGGSLRLSSAASGSIFELNAMGWYRQAPGKERELVAAIRWRTGRTYYADSVKGRFTISRDNAKNTVYLQMNSLKPEDTAVYYCARVAPASGVRWYYYWGQGTQVTVSS | high polyreactivity
QVQLVETGGGLVQAGGSLRLSCDASGRIIRWYALGWYRQAPGKERELDAAITRSGSTFYADSVKWRFTISRDNAKNTVYLQMNSLKREDTADYYCNTCRWLYDTRYQFDEFDYWGQGTQVTVSS | high polyreactivity
QVQLVESGGGLVQAGGSLRLSCAASGRTFIPYAMGWYRQAPGKERELVATIRRGGSTYYADSVKGSFTISRDNAKNTVYLQMNSLKPEDTAVYYCAATRYSFGPRRVDYWGQGTQVSVSS | high polyreactivity
QVQLVESGGGLVQAGGSLLISCAASGRTLDFNVMGWYRQAPGKERELVAAITWSGGSTYYADSVKGRFTISRDNAKNTVYLQMNSLKPEDTAVYYCAKDRWYWARRYDYWGQGTQVTVSS | high polyreactivity
QVQHVESGGGLVQAGGSQRLSCAASGSTLYYNAMGWYRQAPGKEREFVAGISSSGGRTYYADSVKGRFTISRDNAKNTVYLQMNSLKPEDTAVYYCARVGAIPSRYGYWGQGTQVTVSS | high polyreactivity
QVQLVESGGGLVQAGGSLRLSCAASGRTFPLNAMGWYRQAPGKERELVASITKSTGNTRYADSVKGRFTISRDNAKNTVYLQMNSLKPEDTAVYYCAARSYRDRYYWGQGTQVTVSS | high polyreactivity
